Reference: patent US20180298374A1 (Merck KGaA, published 2018)
Where two headings read alike, the source gives them in different places.

How the values were obtained:
huEGFR [1] = target: T1, huEGFR (human, UniProt P00533 25-645, limits assumed, phycoerythrin conjugate (LYNX rapid RPE kit))
T1 construct: also called EGFR-PE; EGFR-phycoerythrin

huEGFR [2] = target: T1, huEGFR; remark: listed apart in the source

Kd (huEGFR [1]): 0.34 nM
Kd (huEGFR [2]): 113 nM
B1: matuzumab (antibody, V domains shown)
VH: QVQLVQSGAEVKKPGASVKVSCKASGYTFTSHWMHWVRQAPGQGLEWIGEFNPSNGRTNYNEKFKSKATMTVDTSTNTAYMELSSLRSEDTAVYYCASRDYDYDGRYFDYWGQGTLVTVSS
VL: DIQMTQSPSSLSASVGDRVTITCSASSSVTYMYWYQQKPGKAPKLLIYDTSNLASGVPSRFSGSGSGTDYTFTISSLQPEDIATYYCQQWSSHIFTFGQGTKVEIKG
